From publication PMC7844570

Molecular target: L-lysine α-oxidase precursor from Trichoderma viride (Trichoderma viride)
Experiment: crystal structure; prLysOX crystals by sitting-drop vapor diffusion at 20 °C, 0.1 M Tris-HCl pH 8.0-9.0, 2-2.1 M ammonium dihydrogen phosphate; space group C222(1); one molecule in the asymmetric unit, dimer formed by crystallographic two-fold symmetry; 1.97 Å

stoichiometry N: 2
Substance: L-lysine α-oxidase precursor from Trichoderma viride (enzyme)
